Measured values as given in patent US7641891B2, “Chimeric, human and humanized anti-CSAp monoclonal antibodies” (Immunomedics, Inc., priority 1998, dated 2010).

B1: cMu-9-2: chimeric Mu-9 constructed from the VH and Vk2 and expressed in Sp2/0 cells (antibody, V domains shown)
VH: QVQLQESGPELVKPGASVKMSCRASGYTFTEYVITWVKQRTGQGLEWIGEIYPGSGSTSYNEKFKGKATLTADKSSNTAYMHLSSLTSEDSAVYFCTREDLGGQGTLVTVSS
VL: DILQTQTPLSLPVSLGDQASISCRSSQSIVHSNGNTYLEWYLQKPGQSPKLLIYKVSNRFSGVPDRFSGTGSGTDFTVRISRVEAEDLGLYYCFQGSRVPYTFGGGTKLEIKR
modifications: human constant regions
notes: chimeric Mu-9 constructed from the VH and Vk2 and expressed in Sp2/0 cells
B2: murine Mu-9: murine monoclonal antibody of the IgG1 subtype, directed against the colon-specific antigen-p mucin (CSAp) (antibody, listed as Murine sp., V domains shown)
VH: VQLQESGPELVKPGASVKMSCRASGYTFTEYVITWVKQRTGQGLEWIGEIYPGSGSTSYNEKFKGKATLTADKSSNTAYMHLSSLTSEDSAVYFCTREDLGGQGTLVTVSS
VL: AVLMTQTPLSLPVSLGDQASISCRSSQSIVHSNGNTYLEWYLQKPGQSPKLLIYKVSNRFSGVPDRFSGTGSGTDFTVRISRVEAEDLGLYYCFQGSRVPYTFGGGTKLEIK
modifications: murine IgG1 constant regions

How the values were obtained:
CSAp antigen [1] = assay: Mu-9 Direct Binding Assay (ELISA); parameters: species or system human; conditions: wells coated with GW-39 tumor extract fraction, murine Mu-9 as standard
Protocol: Chimeric antibody supernatant (100 μl) or purified antibody (0-1 μg/ml) was added and incubated at room temperature for 1 hour. Unbound proteins were removed by washing six times with wash buffer (PBS containing 0.05% Tween 20). Purified murine Mu-9 protein was used as the standard. The bound antibodies were allowed to react with peroxidase-conjugated goat anti-human IgG, Fc fragment-specific (Jackson ImmunoResearch, West Grove Pa.) and peroxidase conjugated goat anti-mouse IgG, Fc fragment-specific antibodies (Jackson ImmunoResearch). […] The color was developed in the dark for 1 hour, the reaction was stopped with 50 μl of 4NH2SO4, and the absorbance at 490 nm was measured in a Dynatech plate reader (Dynatech Labs, Sussex, UK).
The methods for expression and binding activity assays for hMu9 were same as described for cMu9. Approximately 10 and 30 μg of linearized hMu9VkpKh and hMu9VHpG1g were co-transfected into SP2/0 cells by electroporation. Transfected cells were grown in 96-well cell culture plates in complete medium for 2 days and then selected by the addition of hygromycin at a final concentration of 500 U/ml. Typically, the colonies began to emerge 2-3 weeks after electroporation and were assayed for antibody secretion by enzyme-linked immunosorbent assay (ELISA). […] The purified antibodies (5 μg) were analyzed by SDS-PAGE on a 4-20% gradient gel under reducing conditions.

CSAp antigen [2] = assay: Competitive Binding Assay against HRP-conjugated Mu-9; parameters: species or system human; conditions: for Competition with the binding of HRP-conjugated Mu-9 to the CSAp antigen: antigen-coated wells, competing antibody 0-50 μg/ml; for Binding affinity to CSAp antigen compared with murine Mu-9: see Example 8-9
Protocol: Murine Mu-9 IgG was conjugated with horseradish peroxidase (HRP) (Sigma). The peroxidase-conjugated Mu-9 was first tested for binding on microwells coated with CSAp antigen, and the optimum concentration was determined to be 0.2 μg/ml. Peroxidase-conjugated Mu-9 was mixed with various concentrations of either murine or chimeric Mu-9 (0-50 μg/ml) before addition to the antigen-coated wells. Binding of the peroxidase-conjugated Mu-9 to the antigen in the presence of the competing antibodies was measured at 490 nm after the addition of the substrate as described earlier.
The binding affinity of hMu-9 was compared in a competitive binding assay as described in Example 6.

Molecule	Direct binding to CSAp antigen (CSAp antigen [1])	Direct binding to CSAp antigen (CSAp antigen [1]; listed as cMu-9)	Competition with the binding of HRP-conjugated Mu-9 to the CSAp antigen (CSAp antigen [2])	Binding affinity to CSAp antigen compared with murine Mu-9 (CSAp antigen [2])	Binding affinity to CSAp antigen compared with murine Mu-9 (CSAp antigen [2]; listed as cMu-9)
B1	virtually superimposable on that of the murine Mu-9	bound avidly to the CSAp antigen	competed equally well	comparable binding affinity to CSAp antigen as that of murine Mu-9	comparable to that of its murine counterpart
B2			competed equally well		
